For series [1], the system named is TALEN left arm (pCLS16715) (artificial (Xanthomonas TALE?)). The experiment in a line: cell_activity. Conditions: paired with right arm P1; 153 of 153 galactose colonies of homozygous sup4-(CAG) diploid yeast show repeat contraction; >99% gene conversion in heterozygous ….
Series [2] concerns TALEN right arm (pCLS9996) (artificial (Xanthomonas TALE?)). The experiment in a line: cell_activity. The following applies: paired with left arm P2; 153 of 153 galactose colonies of homozygous sup4-(CAG) diploid yeast show repeat contraction; >99% gene conversion in heterozygous ….

In series [1], “GTGATCCCCCCAGCA (double strand) [left TALE target site in sup4-(CAG)]” registered an activity of 100%.
“GCTGCTGCTGCTGCT (double strand) [right TALE target site in sup4-(CAG)]” yielded an activity in series [2] of 100%.
